Data taken from patent US20230167192A1 (SUZHOU ZELGEN BIOPHARMACEUTICALS, published 2023).
Values belong to the molecule of their own block, whether it stands above or below them.

Tests used:
[1] = molecular target: monkey CD47 on monkey erythrocytes (monkey); experiment: flow cytometry on monkey erythrocytes
human CD47 on cells [2] = molecular target: T1, human CD47 on cells (human, UniProt Q08722 19-323); experiment: flow cytometry on A2780 cells
T1 construct: whole, on cells; also called CHO-CD47 cells; MKN-45
Procedure: (§1) First, the inventors verified the expression of CD47 in the above 3 cell lines using flow cytometry. Serially diluted solutions of anti-human CD47 detection antibody (eBioscience, 17-0479-42) and APC isotype (eBioscience, 17-4714-41), anti-huIgG 633 (life technologies, A21091) were prepared with PBS to formulate 2× working solutions at final concentrations. The three tumor cells were collected, washed with PBS once, counted, and diluted to 4×10⁶/mL cell suspension. For each cell line, 50 μL of the antibody working solution was added into 50 μL of cell suspension, and the mixture was incubated at 4° C. in the dark for 30 min. After washing twice with PBS, a corresponding fluorescence-labeled secondary antibody (anti-huIgG 633) was added, and the mixture was incubated for 30 min at 4° C. in the dark, washed twice with PBS, and suspended with 400 μL of FACS buffer. The binding of the antibodies to the cells was detected by a flow cytometer.
(§2) The method is the same as above.

human CD47 on cells [3] = molecular target: T1, human CD47 on cells; experiment: flow cytometry on human erythrocytes; human erythrocytes, flow cytometry
Procedure: Erythrocytes were first isolated from the peripheral blood of volunteers and suspended in physiological saline to obtain an erythrocyte suspension with a concentration of 2%. Serially diluted antibody solutions were prepared with PBS to formulate 2× working solutions at final concentrations. 50 μL of the antibody working solution was added into 50 μL of erythrocyte suspension, and the mixture was incubated at 4° C. in the dark for 60 min. After washing twice with PBS, a corresponding fluorescence-labeled secondary antibody was added, and the mixture was incubated for 30 min at 4° C. in the dark, washed twice with PBS, and suspended with 400 μL of FACS buffer. The binding of the antibodies to the erythrocytes was detected by a flow cytometer. For erythrocyte agglutination detection, 50 μL of the antibody working solution was also added into 50 μL of erythrocyte suspension. The mixture was placed on a 96-well round bottom plate, let stand at room temperature for 2 h, observed and photographed.

human CD47 on cells [4] = molecular target: T1, human CD47 on cells; experiment: flow cytometry on SW620 cells
Procedure: as §1, §2

human CD47 on cells [5] = molecular target: T1, human CD47 on cells; experiment: flow cytometry on MKN-45 cells
Procedure: as §1, §2

human CD47 on cells [6] = molecular target: T1, human CD47 on cells; experiment: flow cytometry, inhibition of SIRPα-mFc binding to CHO-CD47 cells
human CD47 protein [7] = molecular target: T2, human CD47 protein (human, UniProt Q08722 19-139, limits assumed); experiment: ELISA, plate coated with human CD47 protein
Procedure: The next day, the plate was washed 3 times with 300 μL of PBST (Tween 20: 0.5‰), then blocked with 5% BSA/PBS at 100 μL/well for 2 h, and shaken at room temperature. The plate was then washed with 300 μL of PBST 3 times. The antibody samples prepared with PBS were serially diluted, added to a 96-well plate at 100 μL/well and shaken for 1 h at room temperature. The plate was then washed with 300 μL of PBST 3 times. A secondary goat anti-mouse IgG HRP or goat anti-human IgG HRP solution was prepared, added to a 96-well plate at 100 μL/well and shaken for 1 h at room temperature. The plate was then washed with 300 μL of PBST 4 times. TMB was added at 100 μL/well for 20 min of chromogenesis. The chromogenesis was terminated by adding 0.6 N H₂SO₄ at 100 μL/well and the OD_{450 nm} was detected.

[8] = molecular target: monkey CD47 on monkey erythrocytes (monkey, UniProt A0A2K5X4H8 19-305); experiment: flow cytometry on monkey erythrocytes
human CD47 protein [9] = molecular target: T2, human CD47 protein; experiment: SPR (Biacore T200), antibody captured on protein A chip, CD47 protein in solution
Procedure: The affinity of antigen-antibody binding was measured by SPR (surface plasma resonance). […] During the dissociation phase, elution was continued for 360 s with HBS-EP buffer. The binding of CD47 to the antibody on the sensor chip was quantitatively determined using Biacore T200 (GE Healthcare).

Sequence of monkey CD47 on monkey erythrocytes (monkey) (A0A2K5 entry or part of it limits assumed): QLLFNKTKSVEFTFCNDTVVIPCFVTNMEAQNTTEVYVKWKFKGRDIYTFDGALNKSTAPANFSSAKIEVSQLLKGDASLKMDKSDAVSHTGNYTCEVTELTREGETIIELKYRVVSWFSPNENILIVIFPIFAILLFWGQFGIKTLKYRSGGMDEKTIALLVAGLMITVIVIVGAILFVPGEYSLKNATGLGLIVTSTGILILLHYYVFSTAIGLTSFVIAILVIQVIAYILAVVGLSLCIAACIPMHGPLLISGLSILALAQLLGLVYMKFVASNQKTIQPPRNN
Sequence of monkey CD47 on monkey erythrocytes (A0A2K5X4H8 entry or part of it limits assumed): as the sequence (A0A2K5 entry or part of it limits assumed) above

- EC50 [1]: 0.586 µg/mL
- plateau [1]: 392
Molecule: positive control antibody Hu5F9

- EC50 (human CD47 on cells [2]): 0.142 µg/mL
- EC50 (human CD47 on cells [3]): 1.21 µg/mL
- EC50 (human CD47 on cells [4]): 0.216 µg/mL
- EC50 (human CD47 on cells [5]): 0.381 µg/mL
- IC50 (human CD47 on cells [6]): 3.38 µg/mL
- EC50 (human CD47 protein [7]): 0.25 µg/mL
- EC50 [8]: 0.907 µg/mL
B1: human-mouse chimeric antibody UM03-L4 (antibody, human IgG4 S228P, kappa, V domains shown)
VH: EVKLVESGGDLVQPGGSRKLSCAASGFTFSDYGMAWIRQAPGKGPEWIAFITNLASSIYYADTVTGRFTISRENAKNTLYLEMSSLRSEDTAMYYCARAGDYRSFPYWGQGTPVTVSA
VL: EILLTQSPAIIAASPGEKVTITCSASSSVNYVNWYQQKPGSSPKIWIYGISNLASGVPARFSGSGSGTSFSFTINSMEAEDVATYYCQQRSTFPPYTFGGGTKLEIKR
notes: expressed in HEK293 cells

- EC50 (human CD47 on cells [2]): 0.119 µg/mL
- Kd (human CD47 protein [9]): 0.19 nM
- koff (human CD47 protein [9]): 0.000193 s⁻¹
- kon (human CD47 protein [9]): 1.02e+06 M⁻¹ s⁻¹
- EC50 (human CD47 on cells [3]): 0.93 µg/mL
- EC50 (human CD47 on cells [4]): 0.126 µg/mL
- EC50 (human CD47 on cells [5]): 0.354 µg/mL
- IC50 (human CD47 on cells [6]): 2.4 µg/mL
- EC50 (human CD47 protein [7]): 0.169 µg/mL
B2: humanized antibody UM03-C4 (antibody, human IgG4 S228P, kappa, V domains shown)
VH: QVQLVESGGGVVQPGGSLRLSCAASGFTFSDYGMAWIRQAPGKGPEWIAFITNLASSIYYADTVTGRFTISRDNSKNTLYLQMNSLRAEDTAVYYCARAGDYRSFPYWGQGTLVTVSA
VL: EIVLTQSPATLSLSPGERATLSCSASSSVNYVNWYQQKPGQAPRILIYGISNLASGVPARFSGSGSGTDFTLTISSLEPEDFAVYYCQQRSTFPPYTFGQGTKLEIKR
notes: expressed in HEK293 cells
